Data: the supplement of paper PMC6379048

Tests used:
Experiment in all cases: Kd (EC50 corrected by depletion factor)
[1] = molecular target: T1, CELF2 (UniProt O95319)
T1 sequence: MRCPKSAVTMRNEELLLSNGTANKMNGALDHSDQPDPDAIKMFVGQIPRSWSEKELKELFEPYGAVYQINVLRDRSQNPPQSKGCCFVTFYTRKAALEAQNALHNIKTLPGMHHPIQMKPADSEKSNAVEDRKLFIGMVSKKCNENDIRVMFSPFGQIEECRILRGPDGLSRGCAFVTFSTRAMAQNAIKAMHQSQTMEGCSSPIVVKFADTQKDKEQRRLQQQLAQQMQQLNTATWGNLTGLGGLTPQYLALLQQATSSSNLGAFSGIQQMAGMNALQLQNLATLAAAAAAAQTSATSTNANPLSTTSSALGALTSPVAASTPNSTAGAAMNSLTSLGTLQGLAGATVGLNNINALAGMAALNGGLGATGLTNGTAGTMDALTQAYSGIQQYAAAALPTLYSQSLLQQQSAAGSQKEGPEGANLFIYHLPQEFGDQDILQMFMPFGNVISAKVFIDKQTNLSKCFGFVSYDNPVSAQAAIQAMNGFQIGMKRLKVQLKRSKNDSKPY
Experimental: (§1)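 Competition-binding assay: HEK293-FT cell lysate (2.5 mg protein) pre-incubated 1 h at 4°C with free motif-containing RNA oligos (0 to 30 µM, 12 doses), then pulled down with the same 5'-amino-C6 RNA oligos immobilised on NHS-Sepharose beads (30 min, 4°C). Bound proteins were quantified by label-free LC-MS/MS and normalised to the water control. EC50 came from a four-parameter log-logistic fit; Kd = EC50 x depletion factor. Random/reversed control probes are dropped.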

[2] = molecular target: DHX15 (UniProt O43143)
Experimental: as §1

[3] = molecular target: DHX9 (UniProt Q08211)
Experimental: as §1

[4] = molecular target: T2, NKRF (UniProt O15226)
T2 sequence: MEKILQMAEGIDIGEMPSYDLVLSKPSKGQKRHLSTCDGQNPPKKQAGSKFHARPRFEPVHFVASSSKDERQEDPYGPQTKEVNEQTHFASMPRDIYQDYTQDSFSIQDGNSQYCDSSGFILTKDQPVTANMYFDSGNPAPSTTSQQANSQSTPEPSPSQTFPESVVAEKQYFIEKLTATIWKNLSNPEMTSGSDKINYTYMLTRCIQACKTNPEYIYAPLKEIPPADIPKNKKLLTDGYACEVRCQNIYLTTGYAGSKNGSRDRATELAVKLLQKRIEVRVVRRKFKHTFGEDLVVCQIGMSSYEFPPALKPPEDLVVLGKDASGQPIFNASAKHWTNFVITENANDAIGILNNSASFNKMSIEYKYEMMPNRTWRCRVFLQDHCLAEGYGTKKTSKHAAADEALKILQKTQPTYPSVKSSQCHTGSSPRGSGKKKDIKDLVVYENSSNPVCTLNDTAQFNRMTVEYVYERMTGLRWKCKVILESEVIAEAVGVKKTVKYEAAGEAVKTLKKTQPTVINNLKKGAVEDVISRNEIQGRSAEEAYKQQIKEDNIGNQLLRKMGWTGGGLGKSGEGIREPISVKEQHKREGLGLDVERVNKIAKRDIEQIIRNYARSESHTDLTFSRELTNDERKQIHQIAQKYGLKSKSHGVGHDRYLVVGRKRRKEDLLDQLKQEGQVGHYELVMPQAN
Experimental: as §1

[5] = molecular target: T3, SSB (UniProt P05455)
T3 sequence: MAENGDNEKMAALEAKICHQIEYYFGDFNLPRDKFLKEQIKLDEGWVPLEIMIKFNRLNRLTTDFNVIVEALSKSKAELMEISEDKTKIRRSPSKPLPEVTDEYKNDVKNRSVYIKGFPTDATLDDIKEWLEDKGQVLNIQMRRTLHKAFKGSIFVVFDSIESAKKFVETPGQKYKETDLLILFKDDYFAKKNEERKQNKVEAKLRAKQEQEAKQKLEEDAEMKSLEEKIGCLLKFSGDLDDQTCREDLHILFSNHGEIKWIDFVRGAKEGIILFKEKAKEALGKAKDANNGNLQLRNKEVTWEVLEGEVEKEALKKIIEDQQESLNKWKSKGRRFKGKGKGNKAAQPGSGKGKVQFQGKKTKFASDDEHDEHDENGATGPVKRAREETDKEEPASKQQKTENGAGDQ
Experimental: as §1

[6] = molecular target: T4, ZCCHC8 (UniProt Q6NZY4)
T4 sequence: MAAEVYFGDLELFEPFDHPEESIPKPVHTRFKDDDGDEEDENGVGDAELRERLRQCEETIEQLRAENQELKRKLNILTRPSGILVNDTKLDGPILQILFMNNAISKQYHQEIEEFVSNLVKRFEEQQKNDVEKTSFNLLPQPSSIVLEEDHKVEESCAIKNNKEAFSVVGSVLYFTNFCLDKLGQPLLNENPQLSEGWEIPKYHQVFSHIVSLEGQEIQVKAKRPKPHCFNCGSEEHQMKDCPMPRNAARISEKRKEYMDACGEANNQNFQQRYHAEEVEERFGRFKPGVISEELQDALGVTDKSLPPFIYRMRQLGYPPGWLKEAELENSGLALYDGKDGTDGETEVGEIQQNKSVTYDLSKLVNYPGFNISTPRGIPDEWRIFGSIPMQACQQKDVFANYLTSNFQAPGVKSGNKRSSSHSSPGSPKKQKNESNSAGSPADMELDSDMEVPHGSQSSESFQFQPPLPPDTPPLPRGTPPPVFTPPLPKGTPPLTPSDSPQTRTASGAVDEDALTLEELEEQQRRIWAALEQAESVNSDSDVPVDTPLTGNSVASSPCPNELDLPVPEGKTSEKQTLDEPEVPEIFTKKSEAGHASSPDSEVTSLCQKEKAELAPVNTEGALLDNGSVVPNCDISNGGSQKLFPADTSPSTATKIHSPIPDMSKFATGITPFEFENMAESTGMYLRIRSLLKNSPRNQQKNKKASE
Experimental: as §1

Chain of DHX9 (Q08211 whole entry): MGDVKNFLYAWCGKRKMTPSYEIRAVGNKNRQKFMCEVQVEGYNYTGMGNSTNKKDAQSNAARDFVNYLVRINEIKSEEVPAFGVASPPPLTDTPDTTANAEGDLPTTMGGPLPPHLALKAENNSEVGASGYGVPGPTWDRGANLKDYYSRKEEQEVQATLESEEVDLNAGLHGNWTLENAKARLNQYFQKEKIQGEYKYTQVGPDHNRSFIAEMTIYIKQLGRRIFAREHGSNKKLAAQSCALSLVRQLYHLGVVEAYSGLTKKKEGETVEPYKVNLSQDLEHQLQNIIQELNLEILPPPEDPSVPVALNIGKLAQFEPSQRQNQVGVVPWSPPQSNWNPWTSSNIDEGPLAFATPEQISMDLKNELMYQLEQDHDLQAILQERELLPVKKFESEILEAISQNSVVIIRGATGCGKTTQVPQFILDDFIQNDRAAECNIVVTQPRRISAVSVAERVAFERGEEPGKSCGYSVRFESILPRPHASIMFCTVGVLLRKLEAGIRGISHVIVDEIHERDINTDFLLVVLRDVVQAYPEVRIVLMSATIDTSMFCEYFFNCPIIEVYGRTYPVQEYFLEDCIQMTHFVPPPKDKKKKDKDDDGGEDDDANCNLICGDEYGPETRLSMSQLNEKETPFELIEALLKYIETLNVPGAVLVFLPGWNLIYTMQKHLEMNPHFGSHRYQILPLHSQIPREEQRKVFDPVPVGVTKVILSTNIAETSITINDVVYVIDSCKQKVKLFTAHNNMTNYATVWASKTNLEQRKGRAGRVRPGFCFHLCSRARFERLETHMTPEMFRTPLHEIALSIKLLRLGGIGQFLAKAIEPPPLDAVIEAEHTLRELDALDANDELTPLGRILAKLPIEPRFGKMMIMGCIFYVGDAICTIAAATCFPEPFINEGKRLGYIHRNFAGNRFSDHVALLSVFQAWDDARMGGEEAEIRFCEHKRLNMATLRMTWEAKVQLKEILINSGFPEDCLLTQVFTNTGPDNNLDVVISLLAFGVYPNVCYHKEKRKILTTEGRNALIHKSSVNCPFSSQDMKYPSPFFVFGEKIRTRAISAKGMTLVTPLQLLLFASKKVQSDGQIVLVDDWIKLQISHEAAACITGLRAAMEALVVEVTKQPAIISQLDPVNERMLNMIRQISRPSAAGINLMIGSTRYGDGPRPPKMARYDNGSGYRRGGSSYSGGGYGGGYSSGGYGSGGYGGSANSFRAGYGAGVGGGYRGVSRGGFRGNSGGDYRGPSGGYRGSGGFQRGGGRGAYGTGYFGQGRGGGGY
Chain of DHX15 (O43143 whole entry): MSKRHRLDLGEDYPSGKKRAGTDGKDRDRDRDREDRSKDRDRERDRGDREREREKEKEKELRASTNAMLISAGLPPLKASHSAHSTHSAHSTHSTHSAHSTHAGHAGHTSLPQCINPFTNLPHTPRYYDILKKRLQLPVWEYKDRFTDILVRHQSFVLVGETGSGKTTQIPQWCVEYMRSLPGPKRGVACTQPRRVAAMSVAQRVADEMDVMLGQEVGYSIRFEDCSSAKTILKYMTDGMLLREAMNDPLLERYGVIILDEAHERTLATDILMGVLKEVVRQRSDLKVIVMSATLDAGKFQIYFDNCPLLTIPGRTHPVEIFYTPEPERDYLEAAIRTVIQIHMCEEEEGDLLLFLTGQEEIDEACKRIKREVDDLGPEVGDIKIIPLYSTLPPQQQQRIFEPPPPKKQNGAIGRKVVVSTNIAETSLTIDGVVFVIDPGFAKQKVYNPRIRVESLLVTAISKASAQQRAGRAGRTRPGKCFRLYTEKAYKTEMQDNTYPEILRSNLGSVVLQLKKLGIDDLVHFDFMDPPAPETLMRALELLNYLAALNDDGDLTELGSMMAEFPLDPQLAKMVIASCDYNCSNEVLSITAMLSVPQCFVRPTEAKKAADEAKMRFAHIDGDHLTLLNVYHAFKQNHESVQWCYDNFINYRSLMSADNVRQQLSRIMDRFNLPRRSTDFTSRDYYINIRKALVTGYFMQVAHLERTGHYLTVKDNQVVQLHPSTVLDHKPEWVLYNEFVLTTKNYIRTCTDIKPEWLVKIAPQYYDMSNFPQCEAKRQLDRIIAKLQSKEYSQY

| Sequence | Kd [1] [nM] | Kd [2] [nM] | Kd [3] [nM] | Kd [4] [nM] | Kd [5] [nM] | Kd [6] [nM] |
| --- | --- | --- | --- | --- | --- | --- |
| AAUAAA | 114 | 446 | 1840 | 222 | 365 | 190 |
| CUGUCCU | 948 | 358 | 155 | 298 | 1060 | 1740 |
| UAUUUAU | 283 | 157 | 1230 | 223 | 289 | 200 |
